Reference: publication PMC5356271 (2017)

B1: HIV-1 Vif, wild type [HIV-1] / Flag-CBFβ (core-binding factor β), wild type [not stated] (parent complex)
chain 1: not shown
chain 2: MPRVVPDQRSKFENEEFFRKLSRECEIKYTGFRDRPHEERQARFQNACRDGRSEIAFVATGTNLSLQFFPASWQGEQRQTPSREYVDLEREAGKVYLKAPMILNGVCVIWKGWIDLQRLDGMGCLEFDEERAQQEDALAQQAFEEARRRTREFEDRDRSHREEMEVRVSQ

Variants of: B1
Test: co-immunoprecipitation (Flag IP) with immunoblot quantification; 293T cells treated with CBFβ-specific siRNA; MG132 (5 μM) for 16-h; read off a plot
In the case of chain 2 I55A, the percent of parent is reported as about 68 % WT CBFβ. For chain 2 F68A, the percent of parent was about 76 % WT CBFβ.
